Source: PMC6220479

What was measured:
[1] = target: TIM-3 expressed on activated human T cells (human (endogenous in activated T cells)) (UniProt Q8TDQ0); assay: flow cytometry on cells; FACS on activated human T cells
[2] = target: TIM-3 expressed on activated human T cells (human (endogenous in activated T cells)) (UniProt Q8TDQ0); assay: Scatchard analysis; on activated human T cells
[3] = target: TIM-3 expressed on activated human T cells (human (endogenous in activated T cells)) (UniProt Q8TDQ0)

Sequence of UniProt Q8TDQ0 (Q8TDQ0 22-301): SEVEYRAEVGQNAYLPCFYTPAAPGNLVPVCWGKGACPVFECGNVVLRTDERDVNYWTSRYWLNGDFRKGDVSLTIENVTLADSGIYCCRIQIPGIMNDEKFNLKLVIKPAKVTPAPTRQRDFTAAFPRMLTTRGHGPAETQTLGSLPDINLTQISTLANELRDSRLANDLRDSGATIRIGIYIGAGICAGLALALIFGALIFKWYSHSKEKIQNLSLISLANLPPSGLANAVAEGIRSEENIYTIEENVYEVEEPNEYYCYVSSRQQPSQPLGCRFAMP

EC50 [1]: 0.1 nM
Kd [2]: 0.16 nM
EC50 in a human tumor TIL assay (IFN-gamma; TIL co-cultured with irradiated CHO-OKT3 cells) [3]: 1.2 nM
Substance: BMS-986258, fully human immunoglobulin (Ig)G1 anti-TIM-3 monoclonal antibody
